± gives the standard deviation of the averaged measurements.
test system: ATP; test: switch fluorescence ratio, 500 uM ATP over buffer (Cy3 cluster intensity, sum of 5 cycles each) (fold (ratio)); higher = stronger signal-on switching upon ATP binding; sequences stand for … in TCGTCGGCAGCGTCAGATGTGTATAAGAGACAGTTTTTTTTTTTTTTTTTTTTTTTTT…TC; details: aptamer strand: ATP DNA aptamer (quencher-CACCTGGGGGAGTATTGCGGAGGAAGG + anchor), 100 nM annealed; ATP concentration: 500 uM
Outline: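 Between each of five buffer/ATP cycles, the flow-cell was stripped with NaOH and re-annealed. Each cycle imaged Cy3-labelled switching-strand clusters, annealed to 100 nM quencher-labelled ATP aptamer on a modified Illumina MiSeq flow-cell, first in selection buffer and then after 15 min with 500 uM ATP at 22 °C. The fluorescence ratio is summed target-cycle over summed buffer-cycle Cy3 intensity per cluster, averaged per switch-domain sequence, with clusters outside 100-1000 RFU excluded.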
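Note: ATP exposure 15 min at 22 °C before imaging.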

Sequence | switch fluorescence ratio
GGGAGGAAGC | 0.99 ± 0.0049
GGGAGGAAGG | 0.974 ± 0.028
GGGAGGAATG | 0.989 ± 0.021
GGGAGGACTT | 0.977 ± 0.029
GGGAGGATCG | 0.993 ± 0.069
GGGAGGATTA | 1 ± 0.031
GGGAGGCGAT | 0.975 ± 0.051
GGGAGGCGGT | 1.01 ± 0.019
GGGAGGGTGC | 1.02 ± 0.07
GGGAGTGGGG | 0.989 ± 0.025
GGGAGTGGGT | 0.99 ± 0.024
GGGAGTGTGG | 1.001 ± 0.0062
GGGAGTTGCT | 0.986 ± 0.039
GGGAGTTTCG | 1.06 ± 0.095
GGGATAAAGA | 1.001 ± 0.003
GGGATAAAGG | 0.993 ± 0.035
GGGATAAGAG | 0.973 ± 0.029
GGGATAAGGC | 1.08 ± 0.014
GGGATAAGGT | 0.979 ± 0.03
GGGATAATTG | 0.978 ± 0.024
GGGATACTAG | 1.01 ± 0.02
GGGATACTTT | 1.5 ± 0.73
GGGATAGAGC | 0.965 ± 0.05
GGGATAGGGC | 1.04 ± 0.054
GGGATAGGTT | 1.07 ± 0.12

Sequence | switch fluorescence ratio
GGGATAGTTT | 1 ± 0.063
GGGATATCGA | 0.975 ± 0.021
GGGATATGAT | 0.9829 ± 0.0029
GGGATCGAGG | 1.01 ± 0.035
GGGATCGTAC | 1.07 ± 0.041
GGGATCGTAT | 0.9856 ± 0.0054
GGGATGGGAC | 1.043 ± 0.0081
GGGATGGTGT | 0.962 ± 0.016
GGGATGGTTA | 0.971 ± 0.056
GGGATGTAAG | 0.966 ± 0.027
GGGATGTTTT | 0.991 ± 0.012
GGGATTACGG | 0.9899 ± 0.0051
GGGATTAGTT | 1.03 ± 0.023
GGGATTATGG | 1.01 ± 0.038
GGGATTCAAC | 1.018 ± 0.0085
GGGATTCCTG | 0.9777 ± 0.0061
GGGATTCTTA | 0.996 ± 0.021
GGGATTTACG | 1.02 ± 0.019
GGGATTTGTT | 0.9888 ± 0.0057
GGGATTTTCT | 1.011 ± 0.0091
GGGATTTTGT | 0.983 ± 0.012
GGGATTTTTT | 1.06 ± 0.16
GGGCAAAGTA | 0.924 ± 0.039
GGGCAAGAAG | 1.021 ± 0.0073
GGGCAAGCAT | 0.999 ± 0.037

Sequence | switch fluorescence ratio
GGGCAAGGGC | 1.038 ± 0.01
GGGCAATTGA | 1 ± 0.051
GGGCACGAAG | 1 ± 0.013
GGGCACGCTG | 1.033 ± 0.0053
GGGCAGAGGA | 1.0929 ± 0.00017
GGGCATGATG | 1.02 ± 0.055
GGGCATGGGC | 0.9965 ± 0.0015
GGGCATGTAG | 0.996 ± 0.058
GGGCATTGTG | 1.03 ± 0.056
GGGCATTTTG | 0.998 ± 0.015
GGGCATTTTT | 0.9824 ± 0.0041
GGGCCAGTGA | 1.03 ± 0.039
GGGCCATGTA | 1 ± 0.034
GGGCCCCTTG | 1.01 ± 0.073
GGGCCCTAAT | 0.982 ± 0.03
GGGCCGATCA | 0.997 ± 0.036
GGGCCGGGGC | 1.01 ± 0.024
GGGCCGGGGG | 1 ± 0.022
GGGCCGGGTT | 1.01 ± 0.021
GGGCCGTGGG | 0.992 ± 0.017
GGGCCTATAG | 0.9859 ± 0.0085
GGGCCTGGTG | 1.42 ± 0.013
GGGCCTGTGA | 1 ± 0.03
GGGCGAAGCG | 0.986 ± 0.035
GGGCGCAACG | 1.05 ± 0.073

Sequence | switch fluorescence ratio
GGGCGCGAAC | 1.06 ± 0.018
GGGCGCTTTC | 1.03 ± 0.028
GGGCGGCACG | 0.966 ± 0.054
GGGCGGCCTA | 0.999 ± 0.021
GGGCGGCCTT | 1.03 ± 0.068
GGGCGGGGGG | 1.01 ± 0.03
GGGCGGGGTA | 1.01 ± 0.027
GGGCGGTGTC | 1.01 ± 0.042
GGGCGTTGGG | 0.948 ± 0.059
GGGCGTTTGA | 1 ± 0.046
GGGCTAGGGT | 1.02 ± 0.023
GGGCTATATT | 0.9904 ± 0.0084
GGGCTATTAG | 0.98 ± 0.013
GGGCTCAGAA | 1.03 ± 0.028
GGGCTGGCTG | 0.998 ± 0.062
GGGCTGGGTC | 0.98 ± 0.038
GGGCTTAAAA | 0.98424 ± 0.00098
GGGCTTGTAA | 0.964 ± 0.012
GGGCTTTAAG | 1.03 ± 0.04
GGGCTTTAAT | 0.992 ± 0.015
GGGCTTTCTG | 0.98 ± 0.05
GGGCTTTGGG | 1.008 ± 0.0068
GGGGAAAACG | 0.989 ± 0.015
GGGGAAAAGC | 1.04 ± 0.014
GGGGAAACAG | 1 ± 0.018

Sequence | switch fluorescence ratio
GGGGAAACGT | 1.12 ± 0.035
GGGGAAATCC | 1.02 ± 0.046
GGGGAAATTT | 1.02 ± 0.028
GGGGAAGAAA | 0.995 ± 0.027
GGGGAAGCGC | 1.01 ± 0.068
GGGGAAGGG | 1.12 ± 0.24
GGGGAAGGGA | 1 ± 0.031
GGGGAAGGGC | 1.02 ± 0.053
GGGGAAGTGC | 1.01 ± 0.055
GGGGAATACA | 1.02 ± 0.017
GGGGAATGGA | 0.982 ± 0.028
GGGGAATTGA | 0.9919 ± 0.0013
GGGGAATTGG | 0.994 ± 0.024
GGGGACAAAT | 1.05 ± 0.0011
GGGGACAGTG | 1.01 ± 0.13
GGGGACCAAT | 1 ± 0.016
GGGGACGGAC | 1.04 ± 0.035
GGGGACTGCG | 1.05 ± 0.023
GGGGACTTAT | 1.02 ± 0.017
GGGGACTTGT | 0.9988 ± 0.0082
GGGGACTTTG | 1.09 ± 0.073
GGGGACTTTT | 0.99 ± 0.026
GGGGAGAATG | 0.9802 ± 0.0069
GGGGAGAGAG | 0.9747 ± 0.0073
GGGGAGATTC | 0.994 ± 0.013

Sequence | switch fluorescence ratio
GGGGAGCGAG | 1.02 ± 0.046
GGGGAGCTAC | 1.17 ± 0.038
GGGGAGGACA | 1.04 ± 0.082
GGGGAGGCCT | 1.01 ± 0.031
GGGGAGGGAA | 1.01 ± 0.027
GGGGAGGTGT | 1.05 ± 0.066
GGGGAGTACT | 1.34 ± 0.44
GGGGAGTATT | 0.971 ± 0.015
GGGGAGTTTC | 1.065 ± 0.0042
GGGGATAGAA | 0.982 ± 0.014
GGGGATAGGG | 0.985 ± 0.016
GGGGATATGA | 0.995 ± 0.049
GGGGATCAGG | 1.03 ± 0.075
GGGGATGAAT | 1 ± 0.024
GGGGATGAGG | 0.9698 ± 0.0095
GGGGATTGGA | 0.979 ± 0.031
GGGGATTGGG | 0.987 ± 0.028
GGGGATTTAG | 0.971 ± 0.027
GGGGATTTAT | 0.997 ± 0.019
GGGGATTTCT | 0.99526 ± 0.00079
GGGGCAAAGG | 1.03 ± 0.075
GGGGCACAGC | 1 ± 0.016
GGGGCACGTG | 0.995 ± 0.015
GGGGCACTGC | 1.008 ± 0.0024
GGGGCACTGT | 1.01 ± 0.013

Sequence | switch fluorescence ratio
GGGGCAGTCA | 0.9785 ± 0.0031
GGGGCATGGG | 0.995 ± 0.033
GGGGCCCGGG | 1.04 ± 0.036
GGGGCCGGGG | 1.01 ± 0.018
GGGGCCGTTA | 1.012 ± 0.0042
GGGGCGGCAG | 0.998 ± 0.013
GGGGCGGCCC | 1.03 ± 0.049
GGGGCGGCGT | 1.02 ± 0.065
GGGGCGGGAT | 1.01 ± 0.02
GGGGCGGTCT | 0.9667 ± 0.004
GGGGCGTAGT | 0.9995 ± 0.0075
GGGGCGTGGG | 0.963 ± 0.042
GGGGCGTTAT | 0.969 ± 0.048
GGGGCTAATG | 1.01 ± 0.023
GGGGCTAGAT | 1.034 ± 0.0076
GGGGCTAGTA | 0.991 ± 0.035
GGGGCTAGTG | 0.977 ± 0.046
GGGGCTATTT | 1.01 ± 0.066
GGGGCTGCAG | 1.09 ± 0.11
GGGGCTGTTG | 0.966 ± 0.024
GGGGCTTAAG | 1.02 ± 0.035
GGGGCTTCTT | 0.9823 ± 0.0038
GGGGCTTGAC | 1.01 ± 0.022
GGGGCTTGGC | 0.999 ± 0.031
GGGGCTTGGG | 0.989 ± 0.043

Sequence | switch fluorescence ratio
GGGGGAAAAG | 1.03 ± 0.1
GGGGGAAAAT | 0.993 ± 0.042
GGGGGAACGG | 1.08 ± 0.1
GGGGGAAGCG | 0.9685 ± 0.0034
GGGGGAAGGC | 1.15 ± 0.23
GGGGGAAGTT | 0.986 ± 0.042
GGGGGAATCC | 1.06 ± 0.08
GGGGGACAGC | 0.992 ± 0.023
GGGGGACGGC | 0.985 ± 0.049
GGGGGACGGG | 1.02 ± 0.029
GGGGGACTAG | 1.02 ± 0.024
GGGGGACTTG | 0.997 ± 0.021
GGGGGAGACA | 0.997 ± 0.027
GGGGGAGGCG | 1.03 ± 0.082
GGGGGAGGT | 0.986 ± 0.038
GGGGGAGTGG | 0.982 ± 0.054
GGGGGATTCC | 1.02 ± 0.017
GGGGGCAAGA | 0.999 ± 0.06
GGGGGCACG | 1.006 ± 0.0098
GGGGGCATCA | 1.07 ± 0.12
GGGGGCCATG | 1.03 ± 0.068
GGGGGCGGAC | 0.974 ± 0.097
GGGGGCGGCA | 0.988 ± 0.042
GGGGGCGGGC | 1.01 ± 0.081
GGGGGCGTGT | 0.977 ± 0.019
